Experimental findings from publication PMC4731814 are described below.

The target in assay [1] is tricellulin first extracellular loop fragment K217A (human) (UniProt Q8N4S9). Kind of assay: SPR; BIAcore X; tricellulin proteins amine-coupled on a CM5 chip; human PLG as analyte at 62.5-1000 nM; HBS-P buffer pH 7.4, 0.15 M NaCl, 37 °C, 30 μl/min; 1:1 Langmuir binding model.
Assay [2] deals with tricellulin second extracellular loop fragment (human) (UniProt Q8N4S9). Described as above.
In assay [3] the target is tricellulin first extracellular loop fragment K217A K252A (human) (UniProt Q8N4S9). The assay is described as above.
For assay [4], the target named is tricellulin first extracellular loop fragment, wild type (human) (UniProt Q8N4S9). The assay is described as above.
Assay [5] has as its target tricellulin first extracellular loop fragment K252A (human) (UniProt Q8N4S9). The assay is described as above.
The next assay has as its target human plasminogen. Kind of assay: ELISA. The following applies: bacteria OD600 = 0.6 bound to microtiter plates; 1 μM human PLG; parent: est. 0.29; read off a plot. (An ELISA detects its analyte on a solid surface through an enzyme-linked reagent.)

Usually Kd stands for the free concentration of one partner at which half of the binding sites on the other are occupied at equilibrium, for simple one-to-one binding. By koff is commonly meant a measure of how fast the partners let go of each other. By kon is commonly meant the rate constant with which the complex forms. Regarding human plasminogen (natural protein), the Kd in assay [1] came out at 0.183 µM; in assay [2], 1.27 µM; in assay [3] it was 1.03 µM; in assay [4], 0.0515 µM; in assay [5], 3.13 µM. Also, the koff in assay [1] amounted to 0.0298 s⁻¹; in assay [2], 0.214 s⁻¹; in assay [3] it was 0.0742 s⁻¹; in assay [4], 7.13 s⁻¹; in assay [5], 0.0184 s⁻¹. Also, the kon in assay [1] was 165000 M⁻¹ s⁻¹; in assay [2], 169000 M⁻¹ s⁻¹; in assay [3], 72400 M⁻¹ s⁻¹; in assay [4], 1.39e+08 M⁻¹ s⁻¹; in assay [5], 5890 M⁻¹ s⁻¹.
Take “streptococcal surface enolase on GAS strain NIH35 (wild type) (from UniProt P69949) K252L; K255L; K434L; K435L”: the response with human plasminogen was 0.17 A450.
On the same count and under the same terms, then “streptococcal surface enolase on GAS strain NIH35 (wild type) (from UniProt P69949) K434L; K435L”, with 0.3 A450; and “streptococcal surface enolase on GAS strain NIH35 (wild type) (from UniProt P69949) K252L; K255L”, with 0.23 A450.
